This note sets out measurements from patent US20160319012A1 (Genentech, published 2016).

For the assay, the target named is T1, hamster phospholipase B-like 2 (PLBL2) (hamster, UniProt G3I6T1 38-585, Used as two conjugates: one with biotin (Biotin-PLBL2) and one with digoxigenin (DIG-PLBL2). Conjugation sites are not stated. Natural mannose-6-phosphate glycans are not carried by the letters.).
T1 construct: Purified hamster PLBL2; also called PLB2; PLBD2
T1 sequence: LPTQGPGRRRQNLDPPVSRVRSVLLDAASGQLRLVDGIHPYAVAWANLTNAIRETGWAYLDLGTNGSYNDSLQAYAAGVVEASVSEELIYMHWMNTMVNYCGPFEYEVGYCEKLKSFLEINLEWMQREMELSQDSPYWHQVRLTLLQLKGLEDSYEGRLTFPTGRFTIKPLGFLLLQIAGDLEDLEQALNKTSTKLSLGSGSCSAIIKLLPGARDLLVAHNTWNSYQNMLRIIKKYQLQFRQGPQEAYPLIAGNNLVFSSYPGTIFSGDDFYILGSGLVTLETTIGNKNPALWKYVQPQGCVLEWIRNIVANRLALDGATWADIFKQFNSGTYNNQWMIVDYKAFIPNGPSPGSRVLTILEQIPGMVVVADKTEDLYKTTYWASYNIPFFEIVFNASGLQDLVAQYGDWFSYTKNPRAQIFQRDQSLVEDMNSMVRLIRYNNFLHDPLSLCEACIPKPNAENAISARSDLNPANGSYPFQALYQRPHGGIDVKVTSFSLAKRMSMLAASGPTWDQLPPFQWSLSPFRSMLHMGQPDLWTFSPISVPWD
Nature of the assay: bridging ELISA with Biotin-PLBL2 and DIG-PLBL2, drug tolerance experiment in serum. Here is the method: The antibody bridging ELISA assay that was developed and validated to detect antibodies to hamster PLBL2 in human serum used two conjugated reagents to capture all isotypes of antibodies directed against hamster PLBL2: purified hamster PLBL2 conjugated to biotin (Biotin-PLBL2) and purified hamster PLBL2 conjugated to digoxigenin (DIG-PLBL2). Production and purification of hamster PLBL2 was carried out using standard methods known to one skilled in the art is also described in U.S. Provisional Application Nos. 61/877,503 and 61/991,228 and conjugation to biotin or DIG were carried out using standard methods known to one skilled in the art. In this semi-homogenous antibody bridging ELISA assay, 75 μL/well of conjugated solution in assay diluent (PBS/0.5% BSA/0.05% Polysorbate 20/0.05% ProClin 300, pH 7.4±0.1) containing 3 μg/mL of each Biotin-PLBL2 and DIG-PLBL2 were co-incubated overnight (16-24 hours) at ambient temperature with 75 μL/well of 1:20 diluted serum samples and controls in assay diluent in polypropylene micronic tubes (National Scientific Supply Co.; Claremont, C A). […] The plates were read at 450 nm for detection absorbance and 630 nm for reference absorbance.
(In general: ELISA stands for enzyme-linked immunosorbent assay.)

B1: lebrikizumab (antibody, human IgG4 S228P, kappa, V domains shown)
VH: VTLRESGPALVKPTQTLTLTCTVSGFSLSAYSVNWIRQPPGKALEWLAMIWGDGKIVYNSALKSRLTISKDTSKNQVVLTMTNMDPVDTATYYCAGDGYYPYAMDNWGQGSLVTVSS
VL: DIVMTQSPDSLSVSLGERATINCRASKSVDSYGNSFMHWYQQKPGQPPKLLIYLASNLESGVPDRFSGSGSGTDFTLTISSLQAEDVAVYYCQQNNEDPRTFGGGTKVEIKR
notes: Humanized IgG4; also called anti-IL13 MAb; anti-IL13 monoclonal antibody
With B1, the binding result was “no binding (tested: 50 µg/mL)”.
